Measured values from article PMC7033585.

Experiments:
[1] = biological target: YeeF-CT^H581A, point variant of the C-terminal toxic domain of YeeF (Bacillus subtilis subsp. spizizenii str. W23) (UniProt O31506); experiment: ITC; YeeF-CT^(M) 10 μM in the cell, YezG 300 μM in the syringe; 25°C; 20 mM HEPES pH 7.5, 150 mM NaCl; two binding site model
[2] = biological target: YeeF-CT^H581A, point variant of the C-terminal toxic domain of YeeF (Bacillus subtilis subsp. spizizenii str. W23) (UniProt O31506); experiment: AUC; sedimentation velocity of mixtures: YeeF-CT fixed, increasing YezG, incubated at 4°C for 1 h beforehand; 20 mM HEPES pH 7.5, 150 mM NaCl; 25°C
[3] = biological target: YeeF-CT^H581A, C-terminal toxic domain of YeeF (Ile527 to Gly669) with the point mutation H581A (Bacillus subtilis subsp. spizizenii str. W23) (UniProt O31506); experiment: AUC; sedimentation velocity of each protein alone at 8, 16 and 32 μM; 20 mM HEPES pH 7.5, 150 mM NaCl; 40,000 rpm, 25°C; c(s) fit with SEDFIT
[4] = biological target: YeeF-CT^H581A, point variant of the C-terminal toxic domain of YeeF (Bacillus subtilis subsp. spizizenii str. W23) (UniProt O31506); experiment: as above
[5] = biological target: CdiI536 (Escherichia coli) (UniProt Q0T964); details: cited from earlier work

YezG immunity protein (from UniProt C0H3X4 1-151) (natural protein)
KD1 (first site of the two-site fit) [1]: 29.4 nM | KD2 (second site of the two-site fit) [1]: 91.7 nM | stoichiometry N (YezG monomers per YeeF-CT dimer) [2]: 2

YeeF-CT^H581A, C-terminal toxic domain of YeeF (Ile527 to Gly669) with the point mutation H581A (from UniProt O31506 527-669) (domain or fragment)
stoichiometry N [3]: 2

YeeF-CT^H581A, point variant of the C-terminal toxic domain of YeeF (from UniProt O31506 527-669) (domain or fragment)
stoichiometry N [4]: 2

CdiA-CT536 CT (from UniProt Q0T963)
Kd [5]: 26.4 nM
